From the supplement of paper PMC9170038

Tested on: MS2 coat protein
Assay: apparent KD of MS2 coat protein; designed switch direction (-1 OFF switch, 1 ON switch): 1; higher = weaker reporter binding
In short: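 Designed RNA switches with common flanks were transcribed on Illumina chips by stalled E. coli RNA polymerase and titrated with SNAP-549-labelled MS2 coat protein, from 0.7 or 1.5 nM doubling to 3 µM, in Tris-HCl pH 7.5 buffer with KCl, MgCl2, BSA, DTT, tRNA and Tween-20. Steps lasted 0.8–1.5 h (lowest) to 10–20 min (highest). Titrations ran without input, with 200 uM small-molecule ligand, or with an oligonucleotide input. Normalised cluster fluorescence was curve-fitted, and apparent KD is the per-design median over clusters.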

[1] = Eterna round: R95, input ligand: FMN 200 uM
[2] = Eterna round: R95, input ligand: microRNA oligo, concentration not stated
[3] = Eterna round: R95, input ligand: none
[4] = input ligand: microRNA oligo, concentration not stated

Sequence | apparent KD of MS2 coat protein [1] [nM] | apparent KD of MS2 coat protein [2] [nM] | apparent KD of MS2 coat protein [3] [nM] | apparent KD of MS2 coat protein (input ligand: FMN 200 uM) [nM] | apparent KD of MS2 coat protein [4] [nM] | apparent KD of MS2 coat protein (input ligand: none) [nM]
CUACGAGCGCCACAGGAUAUACUGAGACUCACAUGAGGAUCACCCAUGUCCAAUUCUCCCAAAUAGUAGAAGGGUGACGCGCUCA [Soordire] (puzzle: Same State 2) | 51.1 | 565 | 546 | – | – | –
CUACUACAUGAGGAUCACCCAUGUUGGAGUGAUGCAGGAUAUGUGUGACCAGAAGAUGAAACAGAAGGGCAAAGAA [JR_SS!_Sub003] (puzzle: Same State 1) | 41.9 | 68 | 96.2 | – | – | –
CUAUCUACAGGUUGCAGUGCUCGUCUUAUACAUGAGGAUCACCCAUGUUAUAGCCCGGUGCUUGCGCUGGGCUGACC [JL ViennaUCT Tearor mod 1] (puzzle: Sensor for hsa-mir-208a) | 33.7 | 15.6 | 33.6 | – | – | –
CUCAAAACAAGCUGCAGUGUUCGUCUUUCACAUGAGGAUCACCCAUGUAGUAGCCCAGUGGAAGCGCUCGGGCCACC [Eronrace] (puzzle: Sensor for hsa-mir-208a) | 55 | 24.9 | 54.1 | – | – | –
CUCAAAACAAGUUGCAGUGUUCGUCUUUAACAUGAGGAUCACCCAUGUAAUAGCCCGGUGGAAGCGCUCGGGCUACC [Edtireisge] (puzzle: Sensor for hsa-mir-208a) | 39.8 | 24 | 45.5 | – | – | –
CUCAAACAUGAGGAUCACCCAUGUGUUGUCAUGGGAGGAUAUCUAAGUUCAUUGUAUUCAGGAGAAGGCCUAUGUC [× ×•×ª×• ×ž×“×™× ×” × ×—×ª-08] (puzzle: Same State 1) | – | 284 | – | – | – | –
CUCCAUUGGGUAGGAUAUCUAGGAUAUGGGAAAGACUAAGUCUGUAGGUCACCUAACCCAGAUGGAGAGAAGGACCCAACACUC [pwkr ssNG2 2FMN + F9.40] (Eterna round: R96, puzzle: Same State NG 2) | – | – | – | 15.1 | 15.2 | 23.2
CUCGAGAGGUUAUAGGAUAUCCAUUUACGUACAUGAGGAUCACCCAUGUCUGACCGCUGGGUCAGGGAGAAGGGUAAGAUCGAGA [Tegeoror] (puzzle: Same State 2) | 275 | 420 | 600 | – | – | –
CUCUCACAUGAGGAUCACCCAUGUCCACCUCCGUGAGGAUAUAGAUAAUAAAUACAUUUACUAGAAGGCGCAUCCC [Bay] (puzzle: Same State 1) | – | 263 | – | – | – | –
CUGAGAUGUCAAGGAUAUCACGUCGAUUAGACGUGAGAAGGUGAUCUGUACAUGAGGAUCACCCAUGUGUUACAUGGAACUCAG [Brourd's SSNG1/1-A2 mod 10] (Eterna round: R96, puzzle: Same State NG 1) | – | – | – | 184 | 30.9 | 53.9
CUGAGCGAUCAAGGAUAUCACGUCGAAUAGACGUGAGAAGGUGAUAAUUACAUGAGGAUCACCCAUGUAUAACAUGAAGCUCAG [SSNG1/9-A1] (Eterna round: R96, puzzle: Same State NG 1) | – | – | – | 16.6 | 15.6 | 22.4
CUGAGCGAUUAAGGAUAUCACGUCGAUUAGACGUGAGAAGGUGAUCAUAACAUGAGGAUCACCCAUGUAUUACAUGAAGCUCAG [SSNG1/3-A2] (Eterna round: R96, puzzle: Same State NG 1) | – | – | – | 312 | 36.8 | 128
CUGCAACAUGAGGAUCACCCAUGUAACCCAAUUAUAGGAUAUGUGAUAGUGAUCGACAUGACAGAAGGGUGAUUGG [Riraence] (puzzle: Same State 1) | 149 | 188 | 291 | – | – | –
CUGCUACAUGAGGAUCACCCAUGUUGGAGUAAUGCAGGAUAUGUGAGACCAGAAGAUAAAACAGAAGGGCAAGGAG [JR_SS!_Sub008] (puzzle: Same State 1) | 18.8 | 20.8 | 24.6 | – | – | –
CUGGAAAACACAGGAUAUACCCGUGAAUCACGGGUAGAAGGGUGAAACAUGAGGAUCACCCAUGUUACCUCCCAAGGGAGGAUU [Zaleisge] (Eterna round: R96, puzzle: Same State NG 1) | – | – | – | 432 | 518 | 946
CUGUACCAUGGAGGAUAUGGGCUGAGACCAGGACAACCCUGGUCAACAUGAGGAUCACCCAUGUCCCAGAAGGCCACGGUGCUA [Anraores] (Eterna round: R96, puzzle: Same State NG 2) | – | – | – | 16 | 103 | 132

Sequence | apparent KD of MS2 coat protein [1] [nM] | apparent KD of MS2 coat protein [2] [nM] | apparent KD of MS2 coat protein [3] [nM] | apparent KD of MS2 coat protein (input ligand: FMN 200 uM) [nM] | apparent KD of MS2 coat protein [4] [nM] | apparent KD of MS2 coat protein (input ligand: none) [nM]
CUGUAUCGCGGAGGAUAUGGGCUGAGACCAGGGCAACCCUGGUCAACAUGAGGAUCACCCAUGUCCCAGAAGGCCGCAAUGCUA [Esatanla] (Eterna round: R96, puzzle: Same State NG 2) | – | – | – | 34.7 | 128 | 137
CUUUUUAGUGCAGGAUAUGAUCAACAUGAGGAUCACCCAUGUGGCGUUGUGAGUAGGGAGAGAGAUCAGAAGGGCGUCUCCGCG [SS-NG2-LRO12] (Eterna round: R96, puzzle: Same State NG 2) | – | – | – | 46.4 | 62.3 | 42.2
GAAGAACAUGAGGAUCACCCAUGUAAGCGGAAGCUAGGAUAUGCGGGAAAGAAGAGAGAAGCAGAAGGAGUAGGAA [JR_SS1_Sub029] (puzzle: Same State 1) | 29.6 | 34.4 | 48.8 | – | – | –
GACAAGAAGUCAUAGGAUAUACAAGGAGUGACAUGAGGAUCACCCAUGUACCAUCACACUACCCAGUAGAAGGAUGGCAAUAAAA [Oranor] (puzzle: Same State 2) | 50.3 | 384 | 542 | – | – | –
GACAAUCUAUCUGAGGAUAUCAUGAAAAAAACAUGAGGAUCACCCAUGUGCAGGAAAACUGCAUAUGAGAAGGCAGAUAGAUUGG [salish99_SS2_r3_011] (puzzle: Same State 2) | 31.2 | 485 | 613 | – | – | –
GACAAUCUAUCUGAGGAUAUCAUGAAAAAAACAUGAGGAUCACCCAUGUGCAGGAAAACUGCAUAUGAGAAGGCAGAUAGAUUGU [salish99_SS2_r3_010] (puzzle: Same State 2) | 45.3 | 689 | 627 | – | – | –
GACAAUUGACAUGAGGAUCACCCAUGUAUUACUUCGUGUUUUUGCUCGUCUUAUGUUAGGUUCGAAAGGAGCUUAAC [Polished] (puzzle: Sensor for hsa-mir-208a version 2) | 68.6 | 16.2 | 86.7 | – | – | –
GACAGACAUGAGGAUCACCCAUGUACAAACGUACAAGGAUAUGUGUGGAAACCGUACUAUACAGAAGGUGUCUGUC [SS1 - 90] (Eterna round: R96, puzzle: Same State 1) | – | – | – | – | 71.3 | –
GACAUGAGGAUCACCCAUGUGAGCGCUUCAAUUUGCGCGACACAGGAUAUAGCAUGCUAUGCAUGCUAGAAGGGUGGUAAAGAC [Risoeserxe] (Eterna round: R96, puzzle: Same State NG 3) | – | – | – | 595 | 49.9 | 140
GAGAAGAGGGACAAGGAUAUGUCAGGAGAGACAUGAGGAUCACCCAUGUAGAGGUUGGAGGAGAGACAGAAGGUGUAGGGAGCGA [JR_SS2_Sub012] (puzzle: Same State 2) | 50.1 | 57.2 | 98 | – | – | –
GAGAGACGAUUAGGAUAUACAGUGAUAAUGAUAGUAGAAGGAAUUGACAUGAGGAUCACCCAUGUAGGACUAAUCCAGAGAGAG [Parity 27 - Jieux - Same State NG 1] (Eterna round: R96, puzzle: Same State NG 1) | – | – | – | 46 | 36.4 | 52.2
GAGAGAGGGUGAGGAUAUUUAGUGAUAAUGAUAAGAGAAGGCACAGACAUGAGGAUCACCCAUGUGGGAAUAAUCCAGAGAGAG [Parity 8 - Jieux - Same State NG 1] (Eterna round: R96, puzzle: Same State NG 1) | – | – | – | – | 167 | –
GAGAGAGGGUGAGGAUAUUUGGUGAUAAUGAUGGGAGAAGGCACAGACAUGAGGAUCACCCAUGUGGGAAUAAUCCAGAGAGAG [Parity 11 - Jieux - Same State NG 1] (Eterna round: R96, puzzle: Same State NG 1) | – | – | – | 582 | 182 | 410
GAGAGAUGGCGAGGAUAUGCGGUGAUAAUGAUGGCAGAAGGCGCUGACAUGAGGAUCACCCAUGUGGGAAUAAUCCAGAGAGAG [Parity 17 - Jieux - Same State NG 1] (Eterna round: R96, puzzle: Same State NG 1) | – | – | – | 279 | 564 | 683
GAGCCAGUCCGAGGAUAUUCAUACAUGAGGAUCACCCAUGUAGGCUCAGAAAAGAAAGAGCCUUGGGAGAAGGCGGACUGGCUC [Xeonanisa<<6] (Eterna round: R96, puzzle: Same State NG 2) | – | – | – | 6.96 | 6.06 | 10.9
GAGGGACAGACCAACAUGAGGAUCACCCAUGUCCUCGCAGGUCAGGAUAUCCGGAGGUAGACGAAGGAGAAGGGACGGUGAACC [AK SSNG3-V2-38] (Eterna round: R96, puzzle: Same State NG 3) | – | – | – | 893 | 251 | 631
